We go through 5 molecules from EP4714976A1 (Sunshine Lake Pharma Co., Ltd., dated 2026).

Usually EC50 stands for the concentration needed to bring the measured effect to its halfway point. One may read the Kd as the free concentration of one partner at which half of the binding sites on the other are occupied at equilibrium, for simple one-to-one binding. As a reminder, the koff is a measure of how fast the partners let go of each other. What is called kon is the rate constant with which the complex forms.

The target of test [1] is T1, FGFR2c (acro) (UniProt P21802 22-377). The test is described as follows: ELISA. (In general: In an ELISA, binding on a coated surface is turned into a signal by an enzyme label.)
T1 sequence (P21802 22-377): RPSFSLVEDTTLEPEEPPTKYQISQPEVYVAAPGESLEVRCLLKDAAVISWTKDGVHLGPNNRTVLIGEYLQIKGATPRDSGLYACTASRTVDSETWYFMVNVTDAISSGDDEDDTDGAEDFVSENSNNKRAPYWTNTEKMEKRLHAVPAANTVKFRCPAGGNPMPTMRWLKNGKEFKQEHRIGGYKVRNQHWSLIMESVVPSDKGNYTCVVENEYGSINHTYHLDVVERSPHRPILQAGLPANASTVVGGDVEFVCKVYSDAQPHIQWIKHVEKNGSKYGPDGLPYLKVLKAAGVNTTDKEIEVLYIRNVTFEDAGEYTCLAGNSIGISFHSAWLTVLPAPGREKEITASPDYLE
Test [2] has as its target T2, FGFR4 (acro) (UniProt P22455 22-369).
T2 sequence (looked up): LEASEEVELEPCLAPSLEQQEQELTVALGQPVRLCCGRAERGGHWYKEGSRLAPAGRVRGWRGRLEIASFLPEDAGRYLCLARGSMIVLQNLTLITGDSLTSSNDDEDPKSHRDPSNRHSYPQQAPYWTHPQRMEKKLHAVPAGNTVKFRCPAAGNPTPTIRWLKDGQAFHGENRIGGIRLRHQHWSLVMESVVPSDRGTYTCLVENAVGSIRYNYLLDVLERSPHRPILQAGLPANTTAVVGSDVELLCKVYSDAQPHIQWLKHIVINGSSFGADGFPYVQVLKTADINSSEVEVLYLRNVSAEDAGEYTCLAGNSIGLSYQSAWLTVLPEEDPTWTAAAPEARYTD
Put plainly: ELISA.

Test [3] concerns the target T3, human FGFR2b (Kaixia Biotechnology, catalog number FGR-HM1BB) (human, UniProt P21802-3 22-378).
T3 construct: extracellular domain; bought; also called hFGFR2b; human FGFR2b protein
The test is described as follows: ELISA, FGFR2b coated at 1 µg/ml.

The target of test [4] is T2, FGFR4 (acro). Put plainly: ELISA, antibody 10 µg/mL.
The target in test [5] is T1, FGFR2c (acro). The test is described as follows: ELISA, antibody 10 µg/mL.
Test [6] concerns the target T3, human FGFR2b (Kaixia Biotechnology, …). Put plainly: BLI, antibody on AHC2 sensor.
The target in test [7] is T4, recombinant cynomolgus monkey FGFR2b (cynomolgus monkey).
T4 construct: extracellular domain; bought; also called cynomolgus macaque FGFR2b
Put plainly: ELISA, antibody 1ug/mL.

A further test deals with T5, FGFR2b on KATO III cells (human, UniProt P21802-3 22-822).
T5 construct: whole, on cells; also called KATO III cells that overexpress FGFR2b
T5 sequence (P21802 other isoform, or with tags, fused parts or gaps): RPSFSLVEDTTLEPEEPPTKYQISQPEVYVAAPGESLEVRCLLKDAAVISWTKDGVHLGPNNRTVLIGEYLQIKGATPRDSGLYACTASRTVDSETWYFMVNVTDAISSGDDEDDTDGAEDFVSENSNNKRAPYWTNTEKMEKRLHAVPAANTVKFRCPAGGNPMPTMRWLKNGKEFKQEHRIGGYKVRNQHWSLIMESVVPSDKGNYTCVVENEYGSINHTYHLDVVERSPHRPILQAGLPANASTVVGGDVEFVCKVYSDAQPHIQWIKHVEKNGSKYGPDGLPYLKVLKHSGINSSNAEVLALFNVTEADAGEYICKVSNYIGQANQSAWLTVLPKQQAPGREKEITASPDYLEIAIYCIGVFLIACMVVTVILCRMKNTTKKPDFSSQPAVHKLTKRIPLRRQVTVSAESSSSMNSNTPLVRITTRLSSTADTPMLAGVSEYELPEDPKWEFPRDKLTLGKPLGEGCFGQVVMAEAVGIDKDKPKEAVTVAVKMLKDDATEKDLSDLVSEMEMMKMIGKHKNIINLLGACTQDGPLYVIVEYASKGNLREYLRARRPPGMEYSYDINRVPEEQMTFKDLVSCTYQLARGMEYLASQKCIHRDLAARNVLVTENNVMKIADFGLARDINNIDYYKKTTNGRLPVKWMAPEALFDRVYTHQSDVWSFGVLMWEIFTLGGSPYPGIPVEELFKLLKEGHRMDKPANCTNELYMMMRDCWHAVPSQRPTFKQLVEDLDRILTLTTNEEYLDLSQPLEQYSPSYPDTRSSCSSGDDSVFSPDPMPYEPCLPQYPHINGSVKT
The test is described as follows: flow cytometry, KATO III cells.

T3 sequence (P21802 other isoform, or with tags, fused parts or gaps): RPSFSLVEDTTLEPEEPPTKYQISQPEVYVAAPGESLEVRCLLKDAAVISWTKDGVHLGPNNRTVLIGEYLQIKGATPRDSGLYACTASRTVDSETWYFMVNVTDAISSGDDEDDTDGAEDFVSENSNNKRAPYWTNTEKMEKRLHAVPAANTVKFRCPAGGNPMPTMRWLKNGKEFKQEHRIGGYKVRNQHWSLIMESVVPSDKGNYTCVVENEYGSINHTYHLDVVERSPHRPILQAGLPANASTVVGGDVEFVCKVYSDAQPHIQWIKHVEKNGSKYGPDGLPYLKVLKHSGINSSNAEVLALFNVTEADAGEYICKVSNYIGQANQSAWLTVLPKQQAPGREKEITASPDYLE

B1: 3E1 scFv-Fc (Fc fusion)
chain: QVQLQQPGAEVVKPGASVKMSCKASGYTFTDYYIHWVKQTPGQGLEWIGAIYPDNGDTSYNQKFKVKATLTADKSSSTAYMQLSSLTSEDSAVYYCARAFTYWGQGTLVTVSAGGGGSGGGGSGGGGSDILITQSPASLSASVGETVTITCGASENIYGALNWYQRKQGKSPQLLIYGATNLADGMSSRFSGSGSGRQYSLKISSLHPDDVATYYCQNVLSTPYTFGGGTKLEIKESKYGPPCPPCPAPEAAGGPSVFLFPPKPKDTLMISRTPEVTCVVVDVSQEDPEVQFNWYVDGVEVHNAKTKPREEQFNSTYRVVSVLTVLHQDWLNGKEYKCKVSNKGLPSSIEKTISKAKGQPREPQVYTLPPSQEEMTKNQVSLTCLVKGFYPSDIAVEWESNGQPENNYKTTPPVLDSDGSFFLYSKLTVDKSRWQEGNVFSCSVMHEALHNHYTQKSLSLSLG
notes: scFv-Fc dimer
Regarding B1, the binding result with FGFR2c (acro) [1] and in the test with FGFR4 (acro) [2] was “no binding (tested: 10 µg/mL)” in each case. Moreover, the EC50 in test [3] worked out at 0.0156 µg/mL; with FGFR2b on KATO III cells it was 0.132 µg/mL. Further, the figures for the “OD (450 nm) value” (with FGFR4 (acro) [4]; with FGFR2c (acro) [5]; in test [7]) were 0.096, 0.118 and 3.34, respectively. Further, the Kd in test [6] was 4.5 nM. In test [6], this molecule showed a koff of 0.00152 s⁻¹. Also, in test [6], the on-rate constant (kon) was determined as 337000 M⁻¹ s⁻¹.

B2: 3E2 scFv-Fc (Fc fusion)
chain: EIQLQQSGAELVKPGASVKMSCKASGYTFSFYNMHWVKRTPGQGLEWIGLIYPDNGDTSYNQKFKGKATLTADTSSSTAYMQLSSLTSEDSAVYYCARGGLDYWGQGTSLTVSSGGGGSGGGGSGGGGSNIVMTQSQKFMSTSVGDRVSVTCKASQNVGTNVAWYQQKPGQSPKALIYSASYRYTGVPDRFTGSGSGTDFTFTISSVQAEDLAVYYCQQHYSTPYTFGGGTKLEIKESKYGPPCPPCPAPEAAGGPSVFLFPPKPKDTLMISRTPEVTCVVVDVSQEDPEVQFNWYVDGVEVHNAKTKPREEQFNSTYRVVSVLTVLHQDWLNGKEYKCKVSNKGLPSSIEKTISKAKGQPREPQVYTLPPSQEEMTKNQVSLTCLVKGFYPSDIAVEWESNGQPENNYKTTPPVLDSDGSFFLYSKLTVDKSRWQEGNVFSCSVMHEALHNHYTQKSLSLSLG
notes: scFv-Fc dimer
For B2, the binding result with FGFR2c (acro) [1] and with FGFR4 (acro) [2] was “no binding (tested: 10 µg/mL)” in each case. For the same molecule, the EC50 was found to be 0.0235 µg/mL in test [3] and 0.236 µg/mL in the test with FGFR2b on KATO III cells. Further, the “OD (450 nm) value” with FGFR4 (acro) [4] was 0.149; in the test with FGFR2c (acro) [5], 0.138; in test [7], 3.35. In test [6], this molecule came in with a Kd of 4.45 nM. Besides, the koff in test [6] was 0.0011 s⁻¹. The molecule further yielded a kon in test [6] of 247000 M⁻¹ s⁻¹.

B3: 1B8 scFv-Fc (Fc fusion)
chain: QIQLQQSGAELVKPGASVKMSCKASGYTFASYNLHWVKQTPGQGLEWIGLIYPENGDTSYNQKFKGKATLTADTSSTTAYIQLSSLTSEDSAVYFCARGGFDYWGQGTSLTVSSGGGGSGGGGSGGGGSDIKMTQSPASLSASVGETVTITCGASENIYGALNWYQRKQGKSPQLLIYGATNLADGMSSRFSGSGSGRQYSLKISSLHPDDVATYYCQNVLSTPYTFGGGTKLEIKESKYGPPCPPCPAPEAAGGPSVFLFPPKPKDTLMISRTPEVTCVVVDVSQEDPEVQFNWYVDGVEVHNAKTKPREEQFNSTYRVVSVLTVLHQDWLNGKEYKCKVSNKGLPSSIEKTISKAKGQPREPQVYTLPPSQEEMTKNQVSLTCLVKGFYPSDIAVEWESNGQPENNYKTTPPVLDSDGSFFLYSKLTVDKSRWQEGNVFSCSVMHEALHNHYTQKSLSLSLG
notes: scFv-Fc dimer
In the case of B3, the binding result with FGFR2c (acro) [1] and in the test with FGFR4 (acro) [2] was “no binding (tested: 10 µg/mL)” each time. For the same molecule, the EC50 in test [3] turned out to be 0.0273 µg/mL; with FGFR2b on KATO III cells, 0.133 µg/mL. Also, the “OD (450 nm) value” turned out to be 0.171 with FGFR4 (acro) [4], 0.076 with FGFR2c (acro) [5] and 3.25 in test [7]. The molecule further yielded a Kd in test [6] of 13.3 nM. In test [6], this molecule registered a koff of 0.00629 s⁻¹. The same molecule displayed a kon in test [6] of 472000 M⁻¹ s⁻¹.

B4: 3C7 scFv-Fc (Fc fusion)
chain: EIQLQQSGAELVKPGASVKMSCKASGYIFRNYYIHWVKRTPGQGLEWIGAIYPDNGDTSYNQRFKVKATLTADTSSSTAYMQLSSLTSEDSAVYYCARAFTYWGQGTTLTVSSGGGGSGGGGSGGGGSDIQMIQSPASLSASVGETVTITCGASENIYGALNWYQRKQGKSPQLLIYGATNLADGMSSRFSGSGSGRQYSLKISSLHPDDVATYYCQNVLSTPYTFGGGTKLEIKESKYGPPCPPCPAPEAAGGPSVFLFPPKPKDTLMISRTPEVTCVVVDVSQEDPEVQFNWYVDGVEVHNAKTKPREEQFNSTYRVVSVLTVLHQDWLNGKEYKCKVSNKGLPSSIEKTISKAKGQPREPQVYTLPPSQEEMTKNQVSLTCLVKGFYPSDIAVEWESNGQPENNYKTTPPVLDSDGSFFLYSKLTVDKSRWQEGNVFSCSVMHEALHNHYTQKSLSLSLG
notes: scFv-Fc dimer
On to B4, for which the binding result with FGFR2c (acro) [1] and with FGFR4 (acro) [2] was “no binding (tested: 10 µg/mL)” each time. For the same molecule, the EC50 in test [3] was 0.0166 µg/mL; with FGFR2b on KATO III cells, 0.2 µg/mL. Moreover, the entries for the “OD (450 nm) value” (with FGFR4 (acro) [4]; in the test with FGFR2c (acro) [5]; in test [7]) were 0.133, 0.091 and 3.19, respectively. Moreover, the Kd in test [6] came out at 3.99 nM. Further, the koff in test [6] amounted to 0.00114 s⁻¹. The same molecule displayed a kon in test [6] of 287000 M⁻¹ s⁻¹.

B5: 3F11 scFv-Fc (Fc fusion)
chain: QVQLQQSGAELVKPGASVKMSCKASGYTFAPYNIHWVRQTPGQGLEWIGLIYPDNGDTSYNQKFKAKATLTADKSSSTAYMQLSSLTSEDSAVYYCARGGFDYWGQGTSLTVSSGGGGSGGGGSGGGGSDIVMTQSQKFMSTSVGDRVSVTCKASQNVGTNVAWYQQKPGQSPKALIYSASYRYSGVPDRFTGSGSGTDFTLTISNVQSEDLAEYFCQQHYSTPFTFGSGTKLEIKESKYGPPCPPCPAPEAAGGPSVFLFPPKPKDTLMISRTPEVTCVVVDVSQEDPEVQFNWYVDGVEVHNAKTKPREEQFNSTYRVVSVLTVLHQDWLNGKEYKCKVSNKGLPSSIEKTISKAKGQPREPQVYTLPPSQEEMTKNQVSLTCLVKGFYPSDIAVEWESNGQPENNYKTTPPVLDSDGSFFLYSKLTVDKSRWQEGNVFSCSVMHEALHNHYTQKSLSLSLG
notes: scFv-Fc dimer
With B5, the binding result in the test with FGFR2c (acro) [1] and with FGFR4 (acro) [2] was “no binding (tested: 10 µg/mL)” throughout. The EC50 in test [3] is 0.0156 µg/mL; in the test with FGFR2b on KATO III cells, 0.164 µg/mL. In addition, the results for the “OD (450 nm) value” (in the test with FGFR4 (acro) [4]; with FGFR2c (acro) [5]; in test [7]) were 0.093, 0.086 and 3.14, respectively. Besides, the Kd in test [6] was 6.13 nM. Moreover, the koff in test [6] is 0.00203 s⁻¹. The same molecule yielded a kon in test [6] of 331000 M⁻¹ s⁻¹.
